Source: the Immune Epitope Database (IEDB)
Blank lines part the entries; values can stand above or below the sequence they belong to.

Legend:
HLA-A*02:01 [1] = experiment: IEDB peptide-MHC binding, cellular MHC/competitive/fluorescence; filed as Kd, often an IC50 or EC50 that approximates it; ≥ and ≤ were set here for values at or beyond the usual limits of such assays; conditions: source organism: Homo sapiens
HLA-C*15:02 = experiment: IEDB peptide-MHC binding, purified MHC/direct/fluorescence; filed as Kd, often an IC50 or EC50 that approximates it; ≥ and ≤ were set here for values at or beyond the usual limits of such assays; conditions: source organism: Entamoeba histolytica HM-1:IMSS
HLA-A*29:02 = experiment: IEDB peptide-MHC binding, purified MHC/competitive/fluorescence; filed as Kd, often an IC50 or EC50 that approximates it; ≥ and ≤ were set here for values at or beyond the usual limits of such assays
HLA-A*32:15 = experiment: as above; conditions: source organism: Entamoeba histolytica HM-1:IMSS
HLA-A*68:23 = experiment: as above; conditions: source organism: Entamoeba histolytica HM-1:IMSS
HLA-B*15:42 = experiment: as above
HLA-B*45:06 = experiment: as above
HLA-B*83:01 = experiment: as above
HLA-C*14:02 = experiment: as above; conditions: source organism: Entamoeba histolytica HM-1:IMSS
HLA-A*02:01 [2] = experiment: IEDB peptide-MHC binding, purified MHC/competitive/radioactivity; ≥ and ≤ were set here for values at or beyond the usual limits of such assays; conditions: source organism: Homo sapiens
HLA-A*02:11 = experiment: IEDB peptide-MHC binding, purified MHC/competitive/fluorescence; filed as Kd, often an IC50 or EC50 that approximates it; ≥ and ≤ were set here for values at or beyond the usual limits of such assays
HLA-A*02:12 = experiment: as above
HLA-A*02:19 = experiment: as above
HLA-A*03:01 [3] = experiment: as above
HLA-A*03:19 = experiment: as above; conditions: source organism: Cryptosporidium parvum Iowa II
HLA-A*26:01 [4] = experiment: as above
HLA-A*68:02 = experiment: as above
HLA-A*69:01 [5] = experiment: as above
HLA-B*18:01 = experiment: as above
HLA-B*27:03 = experiment: as above
HLA-B*27:20 = experiment: as above; conditions: source organism: Cryptosporidium parvum Iowa II
HLA-B*39:01 = experiment: as above
HLA-B*46:01 = experiment: as above
HLA-B*57:01 = experiment: as above
HLA-A*02:01 [6] = experiment: as above; conditions: source organism: Yersinia pestis Nepal516
HLA-A*02:03 = experiment: as above; conditions: source organism: Yersinia pestis Nepal516
HLA-A*02:16 = experiment: as above; conditions: source organism: Yersinia pestis Nepal516
HLA-A*25:01 = experiment: as above; conditions: source organism: Yersinia pestis Nepal516
HLA-A*80:01 = experiment: as above; conditions: source organism: Yersinia pestis Nepal516
HLA-B*15:01 [7] = experiment: as above; conditions: source organism: Yersinia pestis Nepal516
HLA-B*15:17 = experiment: as above; conditions: source organism: Yersinia pestis Nepal516
HLA-B*51:01 = experiment: as above; conditions: source organism: Yersinia pestis Nepal516
HLA-A*01:01 = experiment: IEDB peptide-MHC binding, purified MHC/direct/fluorescence; filed as Kd, often an IC50 or EC50 that approximates it; ≥ and ≤ were set here for values at or beyond the usual limits of such assays; conditions: source organism: Giardia lamblia ATCC 50803
HLA-A*02:01 [8] = experiment: as above; conditions: source organism: Giardia lamblia ATCC 50803
HLA-A*03:01 [9] = experiment: as above; conditions: source organism: Giardia lamblia ATCC 50803
HLA-A*11:01 = experiment: as above; conditions: source organism: Giardia lamblia ATCC 50803
HLA-A*24:03 = experiment: as above; conditions: source organism: Giardia lamblia ATCC 50803
HLA-A*26:01 [10] = experiment: as above; conditions: source organism: Giardia lamblia ATCC 50803
HLA-A*30:01 = experiment: as above; conditions: source organism: Giardia lamblia ATCC 50803
HLA-A*31:01 = experiment: as above; conditions: source organism: Giardia lamblia ATCC 50803
HLA-A*69:01 [11] = experiment: as above; conditions: source organism: Giardia lamblia ATCC 50803
HLA-B*07:02 = experiment: as above; conditions: source organism: Giardia lamblia ATCC 50803
HLA-B*08:01 = experiment: as above; conditions: source organism: Giardia lamblia ATCC 50803
HLA-B*15:01 [12] = experiment: as above; conditions: source organism: Giardia lamblia ATCC 50803
HLA-B*27:05 = experiment: as above; conditions: source organism: Giardia lamblia ATCC 50803
HLA-B*40:01 = experiment: as above; conditions: source organism: Giardia lamblia ATCC 50803
HLA-B*44:02 = experiment: as above; conditions: source organism: Giardia lamblia ATCC 50803
HLA-B*58:01 = experiment: as above; conditions: source organism: Giardia lamblia ATCC 50803
[13] = source organism: Entamoeba histolytica HM-1:IMSS
[14] = source organism: Cryptosporidium parvum Iowa II
[15] = source organism: Yersinia pestis Nepal516

Kd (HLA-A*02:01 [1]): ≥ 156 µM
Sequence: KLVVVGAGGV

Sequence: YIISTHYQF
Kd (HLA-C*15:02): 1.94 µM
Kd (HLA-A*29:02; [13]): 0.0003 µM
Kd (HLA-A*32:15): 0.213 µM
Kd (HLA-A*68:23): 0.204 µM
Kd (HLA-B*15:42; [13]): ≥ 5 µM
Kd (HLA-B*45:06; [13]): ≥ 5 µM
Kd (HLA-B*83:01; [13]): 5.79 µM
Kd (HLA-C*14:02): 0.158 µM

IC50 (HLA-A*02:01 [2]): 0.0114 µM
Sequence: KMDSFLDMQL

Sequence: RIYKRSLKL
Kd (HLA-A*02:11; [14]): ≥ 20 µM
Kd (HLA-A*02:12; [14]): ≥ 20 µM
Kd (HLA-A*02:19; [14]): ≥ 20 µM
Kd (HLA-A*03:01 [3]; [14]): 0.0189 µM
Kd (HLA-A*03:19): 0.0141 µM
Kd (HLA-A*26:01 [4]; [14]): ≥ 20 µM
Kd (HLA-A*29:02; [14]): ≥ 20 µM
Kd (HLA-A*68:02; [14]): ≥ 20 µM
Kd (HLA-A*69:01 [5]; [14]): ≥ 20 µM
Kd (HLA-B*15:42; [14]): 2.19 µM
Kd (HLA-B*18:01; [14]): ≥ 20 µM
Kd (HLA-B*27:03; [14]): ≥ 20 µM
Kd (HLA-B*27:20): 0.0293 µM
Kd (HLA-B*39:01; [14]): ≥ 20 µM
Kd (HLA-B*45:06; [14]): ≥ 5 µM
Kd (HLA-B*46:01; [14]): ≥ 20 µM
Kd (HLA-B*57:01; [14]): ≥ 20 µM
Kd (HLA-B*83:01; [14]): ≥ 5 µM

Sequence: LELIGNAES
Kd (HLA-A*02:01 [6]): ≥ 20 µM
Kd (HLA-A*02:03): ≥ 20 µM
Kd (HLA-A*02:11; [15]): ≥ 20 µM
Kd (HLA-A*02:12; [15]): ≥ 20 µM
Kd (HLA-A*02:16): ≥ 20 µM
Kd (HLA-A*02:19; [15]): ≥ 20 µM
Kd (HLA-A*03:01 [3]; [15]): ≥ 20 µM
Kd (HLA-A*25:01): ≥ 20 µM
Kd (HLA-A*26:01 [4]; [15]): ≥ 20 µM
Kd (HLA-A*29:02; [15]): ≥ 20 µM
Kd (HLA-A*68:02; [15]): ≥ 20 µM
Kd (HLA-A*69:01 [5]; [15]): ≥ 20 µM
Kd (HLA-A*80:01): ≥ 20 µM
Kd (HLA-B*15:01 [7]): ≥ 20 µM
Kd (HLA-B*15:17): ≥ 20 µM
Kd (HLA-B*18:01; [15]): 0.921 µM
Kd (HLA-B*27:03; [15]): ≥ 20 µM
Kd (HLA-B*39:01; [15]): ≥ 20 µM
Kd (HLA-B*46:01; [15]): ≥ 20 µM
Kd (HLA-B*51:01): ≥ 20 µM
Kd (HLA-B*57:01; [15]): ≥ 20 µM

Sequence: KTPWDRFCK
Kd (HLA-A*01:01): ≥ 20 µM
Kd (HLA-A*02:01 [8]): ≥ 20 µM
Kd (HLA-A*03:01 [9]): 3.63 µM
Kd (HLA-A*11:01): 0.0641 µM
Kd (HLA-A*24:03): 6.93 µM
Kd (HLA-A*26:01 [10]): ≥ 20 µM
Kd (HLA-A*30:01): 0.0218 µM
Kd (HLA-A*31:01): 0.0957 µM
Kd (HLA-A*69:01 [11]): ≥ 20 µM
Kd (HLA-B*07:02): ≥ 20 µM
Kd (HLA-B*08:01): ≥ 20 µM
Kd (HLA-B*15:01 [12]): ≥ 20 µM
Kd (HLA-B*27:05): ≥ 20 µM
Kd (HLA-B*40:01): ≥ 20 µM
Kd (HLA-B*44:02): ≥ 20 µM
Kd (HLA-B*58:01): ≥ 20 µM
